Patent US20250206795

System: T1, Mouse proBDNF-G-CSF-Tr protein
T1 sequence: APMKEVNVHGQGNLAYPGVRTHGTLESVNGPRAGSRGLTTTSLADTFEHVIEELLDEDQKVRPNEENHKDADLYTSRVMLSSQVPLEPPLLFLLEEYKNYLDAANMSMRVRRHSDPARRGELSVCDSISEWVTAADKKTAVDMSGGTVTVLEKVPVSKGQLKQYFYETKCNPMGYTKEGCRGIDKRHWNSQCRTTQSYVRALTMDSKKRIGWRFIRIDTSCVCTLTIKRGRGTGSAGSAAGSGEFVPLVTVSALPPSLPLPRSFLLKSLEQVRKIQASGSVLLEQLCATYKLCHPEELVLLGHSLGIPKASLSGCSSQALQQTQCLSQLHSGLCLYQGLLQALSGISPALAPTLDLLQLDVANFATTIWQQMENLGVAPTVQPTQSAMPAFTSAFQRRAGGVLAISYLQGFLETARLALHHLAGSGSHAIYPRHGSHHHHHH

For furin, the “enzymatic cleavage (SDS PAGE and Western blot with anti-4-His antibodies), 1 Unit furin, 30 C, 4 hours” value was “furin effectively cleaved the proBDNF-G-CSF-Tr molecule to yield BDNF-G-CSF-Tr”.
